Reference: PMC10953559
Several values for one entry are separate records, joined by “and”; a condition that tells them apart may be missing. Equal entries are not always repeated.

Biological target: GroEL14 as used with the substrate proteins NanA and DapA (E. coli) (UniProt P0A6F5)
Assay: native MS; CE-MS; 6 µM GroEL14 with 6 or 12 µM substrate monomers, denatured in 6.5 M GuHCl and 9 mM DTT and diluted 30-fold into GroEL14 buffer pH 7.5 (200 mM GuHCl, 0.3 mM DTT left); no ATP, no GroES; BGE 50 mM ammonium acetate pH 6.7

Sequence of N-acetyl neuraminic acid aldolase, denatured monomer (NanA) (P0A6L4 2-297): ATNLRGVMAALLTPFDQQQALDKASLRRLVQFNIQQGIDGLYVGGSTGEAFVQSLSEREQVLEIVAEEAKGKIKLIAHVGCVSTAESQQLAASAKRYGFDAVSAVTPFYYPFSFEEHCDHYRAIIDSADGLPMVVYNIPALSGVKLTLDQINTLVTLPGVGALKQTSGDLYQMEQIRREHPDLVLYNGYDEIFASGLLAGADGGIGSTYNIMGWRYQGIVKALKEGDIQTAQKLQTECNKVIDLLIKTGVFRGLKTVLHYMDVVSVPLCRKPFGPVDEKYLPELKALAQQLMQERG

For “N-acetyl neuraminic acid aldolase, denatured monomer (NanA) (from UniProt P0A6L4 2-297) (enzyme)”, the share of the total signal intensity, GroEL14-NanA1 complex was 10%, the share of the total signal intensity, GroEL14-NanA2 complex was 90% and the stoichiometry N (NanA monomers per GroEL14) was 1 and 2.
